Experimental data taken from the supplement of paper PMC9732359.
± gives the uncertainty stated by the source.

Experiment: protein stability index of a GFP-peptide fusion (yeast GPS) (PSI 1-4); higher = more stable; sorted into four equal gates, so the index is relative within each strain
Outline: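 For each peptide, the protein stability index sums the read frequency in every gate after multiplying it by the gate number. Read frequencies came from plasmids that were PCR-amplified from each gate and Illumina-sequenced, with reads assigned to strains by barcodes. The gates were four equal bins of GFP/Cherry fluorescence ratio applied to mid-log yeast in leucine-free medium carrying a pooled library of tiled 17-residue yeast protein peptides fused downstream of GFP on a Cherry-expressing plasmid.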

Row | Sequence | protein stability index (doa10∆) | protein stability index (pdr5∆) | protein stability index (san1∆) | protein stability index (ubr1∆)
1 | QVVGPFHTSFSAVVGPN [SMC4] | 2.53 ± 0.063 | 2.39 ± 0.055 | 2.78 ± 0.055 | 2.73 ± 0.037
2 | AMSTVTLGVVGKSEKLS [SKI6] | 2.81 ± 0.079 | 3.19 ± 0.081 | 2.75 ± 0.099 | 2.93 ± 0.073
3 | ALTQMDQDKVNFASGDN [RPB3] | 3.33 ± 0.14 | 3.5 ± 0.13 | 3.08 ± 0.15 | 3.65 ± 0.28
4 | LLVDQKQLNSLRRSGQI [SMD1] | 2.57 ± 0.047 | 2.79 ± 0.054 | 2.96 ± 0.061 | 2.72 ± 0.051
5 | YLDQHKRTRLESLKNLN [SMC3] | 2.11 ± 0.097 | 2.23 ± 0.083 | 1.7 ± 0.098 | 2.58 ± 0.21
6 | KVEYKIVHDDPASDDIL [ITC1] | 3.05 ± 0.087 | 3.09 ± 0.086 | 3.05 ± 0.17 | 3.21 ± 0.091
7 | PTTVSYIFCISRTIGMV [SCL1] | 1.99 ± 0.039 | 1.97 ± 0.051 | 2.88 ± 0.036 | 1.95 ± 0.039
8 | FTIRGFKQKLNELLKCK [MTW1] | 3.05 ± 0.059 | 2.92 ± 0.073 | 2.93 ± 0.064 | 3.17 ± 0.046
9 | SSVVSEPKKPSFTFASS [YOR098C/NUP1] | 3 ± 0.049 | 3.12 ± 0.038 | 3.01 ± 0.044 | 2.92 ± 0.034
10 | GKHLSYQRSKRVNNPNV [RPL33A] | 2.32 ± 0.047 | 1.92 ± 0.038 | 2.01 ± 0.069 | 2.78 ± 0.041
11 | PMVSVMKMDKSPTESYS [RPT2] | 1.64 ± 0.11 | 1.57 ± 0.088 | 1.11 ± 0.2 | 1.71 ± 0.093
12 | WLKNKFAEENITHKLTK [BRR2] | 3.13 ± 0.085 | 3.03 ± 0.06 | 2.85 ± 0.047 | 3.01 ± 0.078
13 | STFGFNNSAPNNTNNAN [YJL041W/NSP1] | 3.13 ± 0.042 | 3.18 ± 0.047 | 2.96 ± 0.039 | 3.19 ± 0.038
14 | RETLVKTWEKVTLDFGN [SMC2] | 1.77 ± 0.063 | 1.74 ± 0.14 | 1.83 ± 0.28 | 1.27 ± 0.12
15 | KIWSVKDGSNPRTLIGH [RPN14] | 3.12 ± 0.11 | 3.01 ± 0.12 | 2.95 ± 0.14 | 2.96 ± 0.12
16 | PGPLPDTDSKPSSQSQN [YLR018C/POM34] | 3.06 ± 0.079 | 3.15 ± 0.061 | 3.17 ± 0.063 | 2.98 ± 0.061
17 | SFSFLNRADGTGEAQVD [YLR335W/NUP2] |  | 3.39 ± 0.23 |  | 2.78 ± 0.29
18 | RLGEMERDCVIAYGASQ [RET1] | 3.24 ± 0.095 | 3.28 ± 0.086 | 2.55 ± 0.13 | 3.22 ± 0.062
19 | DTRITHLLRQTNAFLDS [SNF2] | 1.5 ± 0.037 | 1.47 ± 0.033 | 1.54 ± 0.064 | 1.61 ± 0.024
20 | LINGHRAPQQSVLQLFQ [SMC2] | 3 ± 0.095 | 2.48 ± 0.069 | 2.5 ± 0.063 | 2.42 ± 0.051
21 | KISEGSAKPTFSFSKSE [YOR098C/NUP1] | 1.75 ± 0.11 | 1.92 ± 0.17 | 2.11 ± 0.2 | 1.77 ± 0.11
22 | LGYTHIAINFTVNHSEK [RPP1] | 1.35 ± 0.038 | 1.25 ± 0.036 | 1.56 ± 0.062 | 1.41 ± 0.042
23 | SIVTVVSSAKFSGKYLK [RPL22B] | 2.8 ± 0.1 | 2.86 ± 0.11 | 2.73 ± 0.085 | 2.73 ± 0.093
24 | EEQLDLLSAILDPSKSK [MED11] | 3.09 ± 0.099 | 3.18 ± 0.12 | 3.32 ± 0.11 | 3.64 ± 0.2
25 | ESDSKATLQSNEPTQKD [DSN1] | 2.81 ± 0.12 | 2.94 ± 0.14 | 2.99 ± 0.071 | 3.02 ± 0.086
26 | AEDGSRSTKDMIDAVFE [SNF6] | 3.18 ± 0.06 | 3.38 ± 0.048 | 3.31 ± 0.042 | 3.14 ± 0.046
